Measured values from patent US20100260805A1 (CIRCASSIA, published 2010).

T1: DQA1*0102/DQB1*0602 (human, UniProt P01920 33-230, limits assumed)
T1 construct: human MHC class II allotype
T1 MHC II alpha: not shown
T1 MHC II beta: not shown


How the values were obtained:
HLA-DRB1*0701 [1] = molecular target: T2, HLA-DRB1*0701 (human); test: competitive MHC class II binding assay; competitor: control peptide Influenza haemagglutinin 307-319;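 as to ratio of IC50 to that of the control peptide: each peptide was tested for its capacity to displace a known reference binder from human MHC class II allotypes, and its IC50 is expressed relative to that of the reference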
T2 construct: human MHC class II allotype

HLA-DRB1*1101 [2] = molecular target: T3, HLA-DRB1*1101 (human); test: as above
T3 construct: human MHC class II allotype

HLA-DRB1*0401 [3] = molecular target: T4, HLA-DRB1*0401 (human); test: as above
T4 construct: human MHC class II allotype

DQA1*0102/DQB1*0602 [4] = molecular target: T1, DQA1*0102/DQB1*0602; test: competitive MHC class II binding assay
HLA-DRB1*1101 [5] = molecular target: T3, HLA-DRB1*1101; test: competitive MHC class II binding assay
HLA-DRB1*0301 = molecular target: T5, HLA-DRB1*0301 (human); test: competitive MHC class II binding assay
T5 construct: human MHC class II allotype

HLA-DRB1*1501 = molecular target: T6, HLA-DRB1*1501 (human); test: competitive MHC class II binding assay
T6 construct: human MHC class II allotype

HLA-DRB1*0701 [6] = molecular target: T2, HLA-DRB1*0701; test: competitive MHC class II binding assay
HLA-DRB1*0401 [7] = molecular target: T4, HLA-DRB1*0401; test: competitive MHC class II binding assay
HLA-DRB1*1301 = molecular target: T7, HLA-DRB1*1301 (human); test: competitive MHC class II binding assay
T7 construct: human MHC class II allotype

HLA-DRB1*0101 = molecular target: T8, HLA-DRB1*0101 (human); test: competitive MHC class II binding assay
T8 construct: human MHC class II allotype

DQA1*0102/DQB1*0602 [8] = molecular target: T1, DQA1*0102/DQB1*0602; test: competitive MHC class II binding assay; competitor: control peptide Human Insulin B 1-15

Binder	ratio of IC50 to that of the control peptide (HLA-DRB1*0701 [1]) [ratio]	ratio of IC50 to that of the control peptide (HLA-DRB1*1101 [2]) [ratio]	ratio of IC50 to that of the control peptide (HLA-DRB1*0401 [3]) [ratio]	binding result (DQA1*0102/DQB1*0602 [4])	binding result (HLA-DRB1*1101 [5])	binding result (HLA-DRB1*0301)	binding result (HLA-DRB1*1501)	binding result (HLA-DRB1*0701 [6])	binding result (HLA-DRB1*0401 [7])	binding result (HLA-DRB1*1301)	binding result (HLA-DRB1*0101)	ratio of IC50 to that of the control peptide (DQA1*0102/DQB1*0602 [8]) [ratio]
DKFERHIGIIDLK [HDM30]	6.2	–	–	–	–	–	–	–	–	–	–	–
EAVFEANQNTKTAK [HDM22A]	–	80	329	–	–	–	–	–	–	–	–	–
RTIIQRDNGYQPNY (solubility test: NO) [HDM13]	–	–	–	no binding	no binding	no binding	no binding	no binding	no binding	no binding	no binding	–
KAVDEAVAAIEKS [HDM28]	–	–	–	no binding	no binding	no binding	no binding	no binding	no binding	no binding	no binding	–
KVLAPAFKKELER [HDM50]	–	–	–	no binding	no binding	no binding	no binding	no binding	no binding	no binding	no binding	–
RNQSLDLAEQELVDCASQH [HDM03C]	–	–	–	–	–	–	–	–	–	–	–	0.16
HIGIIDLKGELDMRN [HDM31A]	–	–	–	no binding	no binding	no binding	no binding	no binding	no binding	no binding	no binding	–
IDLKGELDMRNIQVR [HDM32A]	–	–	–	no binding	no binding	no binding	no binding	no binding	no binding	no binding	no binding	–
HDDVVSMEYDLAYKL [HDM39A]	0.71	–	76.2	–	–	–	–	–	–	–	–	0.1
ETFDPMKVPDHSDK [HDM29A]	–	–	–	no binding	no binding	no binding	no binding	no binding	no binding	no binding	no binding	–
IGIIDLKGELDMRN [HDM31]	–	–	–	no binding	no binding	no binding	no binding	no binding	no binding	no binding	no binding	–
NKIREALAQTHSA [HDM08]	–	–	–	no binding	no binding	no binding	no binding	no binding	no binding	no binding	no binding	–
EYIQHNGVVQESY [HDM05]	–	–	–	no binding	no binding	no binding	no binding	no binding	no binding	no binding	no binding	–
VSMEYDLAYKLGDLH [HDM40A]	2.29	6	–	–	–	–	–	–	–	–	–	–
AKIEIKASLDGLE [HDM27]	–	–	–	no binding	no binding	no binding	no binding	no binding	no binding	no binding	no binding	–
IGIKDLDAFRHYD [HDM11]	–	–	–	no binding	no binding	no binding	no binding	no binding	no binding	no binding	no binding	–
PNVNKIREALAQT [HDM07]	–	–	–	no binding	no binding	no binding	no binding	no binding	no binding	no binding	no binding	–
KRVGDANVKSEDG [HDM36]	–	–	–	no binding	no binding	no binding	no binding	no binding	no binding	no binding	no binding	–
KSETFDPMKVPDHSD [HDM29B]	–	–	–	no binding	no binding	no binding	no binding	no binding	no binding	no binding	no binding	–
ANVKSEDGVVKAH [HDM37]	–	–	–	no binding	no binding	no binding	no binding	no binding	no binding	no binding	no binding	–
RGLKQMKRVGDAN [HDM35]	–	1.26	–	–	–	–	–	–	–	–	–	–
KDLDAFRHYDGRT [HDM12]	–	–	–	no binding	no binding	no binding	no binding	no binding	no binding	no binding	no binding	–
RNSWDTNWGDNGYG [HDM16A]	–	–	–	no binding	no binding	no binding	no binding	no binding	no binding	no binding	no binding	–
ETFDPMKVPDHSD [HDM29]	–	–	–	no binding	no binding	no binding	no binding	no binding	no binding	no binding	no binding	–
RYVAREQSCRRPN [HDM06]	–	30.4	–	–	–	–	–	–	–	–	–	0.86
VDFKGELAMRNIE [HDM51]	20.9	30.9	–	–	–	–	–	–	–	–	–	–
NSVNVPSELDLRSLRT [HDM17]	–	–	–	no binding	no binding	no binding	no binding	no binding	no binding	no binding	no binding	–
